We go through one molecule from patent publication US20230131338A1 (Regeneron, published 2023).

As usually defined, the Kd is a measure of binding affinity in units of concentration.

Test [1] deals with T1, cynomolgus monkey FXI (in pooled cynomolgus monkey plasma) (cynomolgus monkey, UniProt A0A2K5VVW4 19-624). Nature of the test: cell-based or functional assay.
Test [2] addresses recombinant rabbit FXI with C-terminal myc-myc-hexahistidine tag (rbFXI.mmH) (rabbit, UniProt G1SSQ6 19-623). The experiment in a line: SPR, REGN9933 surface-captured, mmH-tagged protein injected, 25°C, pH 7.4, 1:1 steady-state model. Background: Surface plasmon resonance follows binding to a sensor surface in real time, without labels.
Test [3] has as its target recombinant mouse FXI with C-terminal myc-myc-hexahistidine tag (mFXI.mmH) (mouse, UniProt Q91Y47 19-624, limits assumed). The experiment in a line: SPR, REGN9933 surface-captured, 25°C, pH 7.4.
Test [4] has as its target T1, cynomolgus monkey FXI (in pooled …). The experiment in a line: cell-based or functional assay. The source holds these as a separate data set.

B1: REGN9933 (antibody, human IgG4 S228P, kappa, V domains shown)
VH: EVQLVESGGGLVQPGGSLRLSCAASGFTFSNYAMNWVRQAPGKGLDWVSFIRSGGDTTYYADSVKGRFTISRDNSKNTLYLQMNSLRAEDTAVYYCAKVHPYTWDYGDAFDIWGQGTMVTVSS
VL: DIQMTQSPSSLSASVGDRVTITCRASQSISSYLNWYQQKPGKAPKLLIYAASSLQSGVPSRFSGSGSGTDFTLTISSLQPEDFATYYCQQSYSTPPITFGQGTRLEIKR
notes: Fully human; hinge-stabilized IgG4 (IgG4P) Fc; also called H4H29790P2; subject anti-FXI mAb
For the molecule B1, the “concentration at which aPTT doubles relative to baseline, pooled cynomolgus monkey plasma” value in test [1] came out at 1.1 µM. Further, in test [2], the dissociation constant (Kd) was 171 nM. Further, the binding result in test [3] is listed as “no binding (tested: 50 nM)”. Moreover, in test [4], the “Fold Increase in Clotting Time (aPTT w/EA), maximum change, monkey plasma” value stood at 2.1 fold; the “TGA % ETP (induced w/EA), relative to baseline, monkey plasma” value was 66%; the “TGA % Peak Thrombin (induced w/EA), relative to baseline, monkey plasma” value was 43%; the “TGA Fold Increase in Lag Time (induced w/EA), maximum change, monkey plasma” value was 2.2 fold.
